Data on 1 protein can be found in publication PMC4597782 (Nature, 2015).

The series concerns the molecule itself. As to the kind of experiment: single-molecule pull-down.

The term stoichiometry N denotes a count of units in the complex or per binding partner.

B1: mGluR2-GFP (receptor)
chain: EGPAKKVLTLEGDLVLGGLFPVHQKGGPAEECGPVNEHRGIQRLEAMLFALDRINRDPHLLPGVRLGAHILDSCSKDTHALEQALDFVRASLSRGADGSRHICPDGSYATHSDAPTAVTGVIGGSYSDVSIQVANLLRLFQIPQISYASTSAKLSDKSRYDYFARTVPPDFFQAKAMAEILRFFNWTYVSTVASEGDYGETGIEAFELEARARNICVATSEKVGRAMSRAAFEGVVRALLQKPSARVAVLFTRSEDARELLAATQRLNASFTWVASDGWGALESVVAGSERAAEGAITIELASYPISDFASYFQSLDPWNNSRNPWFREFWEERFHCSFRQRDCAAHSLRAVPFEQESKIMFVVNAVYAMAHALHNMHRALCPNTTHLCDAMRPVNGRRLYKDFVLNVKFDAPFRPADTDDEVRFDRFGDGIGRYNIFTYLRAGSGRYRYQKVGYWAEGLTLDTSFIPWASPSAGPLPASRCSEPCLQNEVKSVQPGEVCCWLCIPCQPYEYRLDEFTCADCGLGYWPNASLTGCFELPQEYIRWGDAWAVGPVTIACLGALATLFVLGVFVRHNATPVVKASGRELCYILLGGVFLCYCMTFVFIAKPSTAVCTLRRLGLGTAFSVCYSALLTKTNRIARIFGGAREGAQRPRFISPASQVAICLALISGQLLIVAAWLVVEAPGTGKETAPERREVVTLRCNHRDASMLGSLAYNVLLIALCTLYAFKTRKCPENFNEAKFIGFTMYTTCIIWLAFLPIFYVTSSDYRVQTTTMCVSVSLSGSVVLGCLFAPKLHIILFQPQKNVVSHRAPTSRFGSAAPRASANLGQGSGSQFVPTVCNGREVVDSTTSSL
Consider B1, for which the “stoichiometry N” value was determined as 2.
